Residue numbers refer to the chain shown, from its start.
Assays:
[1] = biological target: T1, gpA33 on human cancer cells (human, UniProt Q99795 22-319); test: cell-based or functional assay
T1 sequence (looked up): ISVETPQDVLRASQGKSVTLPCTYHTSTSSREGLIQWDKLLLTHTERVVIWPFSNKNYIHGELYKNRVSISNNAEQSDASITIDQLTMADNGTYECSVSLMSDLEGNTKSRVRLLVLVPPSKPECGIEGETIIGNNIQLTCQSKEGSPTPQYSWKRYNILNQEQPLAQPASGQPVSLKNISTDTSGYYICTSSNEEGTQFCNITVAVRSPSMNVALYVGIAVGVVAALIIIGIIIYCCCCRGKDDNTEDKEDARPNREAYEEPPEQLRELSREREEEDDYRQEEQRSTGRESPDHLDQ

[2] = biological target: CD3 of cynomolgus monkey T cells (cynomolgus monkey, UniProt Q95LI5 22-198; Q95LI8 22-171); test: cell-based or functional assay
Chain of CD3 of cynomolgus monkey T cells (Q95LI5 22-198 limits assumed, chain 1 of 2): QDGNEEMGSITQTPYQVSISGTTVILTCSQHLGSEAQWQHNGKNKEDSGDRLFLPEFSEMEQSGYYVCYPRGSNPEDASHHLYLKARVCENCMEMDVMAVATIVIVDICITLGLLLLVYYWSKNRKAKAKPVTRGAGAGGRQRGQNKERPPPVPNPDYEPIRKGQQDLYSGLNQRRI
Chain of CD3 of cynomolgus monkey T cells (Q95LI8 22-171 limits assumed, chain 2 of 2): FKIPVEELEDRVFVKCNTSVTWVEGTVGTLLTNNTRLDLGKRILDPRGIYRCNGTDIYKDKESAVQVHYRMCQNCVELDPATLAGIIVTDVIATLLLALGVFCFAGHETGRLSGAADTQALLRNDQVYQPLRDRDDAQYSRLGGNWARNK

human gpA33 = biological target: T2, human gpA33 (human, UniProt Q99795 22-235, limits assumed); test: kinetics of binding to gpA33; method not stated
T2 construct: There it is printed only as gpA33; also called A33 antigen
T2 sequence (looked up): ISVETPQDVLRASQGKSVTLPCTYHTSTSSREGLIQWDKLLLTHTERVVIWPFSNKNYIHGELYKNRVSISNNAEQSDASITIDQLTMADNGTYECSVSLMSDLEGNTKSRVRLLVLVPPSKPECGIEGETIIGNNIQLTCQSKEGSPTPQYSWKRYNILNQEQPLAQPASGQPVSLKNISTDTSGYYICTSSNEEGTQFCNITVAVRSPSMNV

[3] = biological target: T3, soluble human CD3ε/CD3δ heterodimer (human); test: SPR (BIAcore 3000), CD3 immobilized on CM5 chip, diabody as analyte, 1:1 Langmuir global fit
T3 construct: Co-expressed in CHO-S cells; also called hCD3ε/δ
T3 chain 1: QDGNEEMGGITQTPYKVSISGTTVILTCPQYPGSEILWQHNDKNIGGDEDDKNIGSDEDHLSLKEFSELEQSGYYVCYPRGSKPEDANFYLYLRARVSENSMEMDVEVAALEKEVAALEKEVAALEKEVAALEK
T3 chain 2: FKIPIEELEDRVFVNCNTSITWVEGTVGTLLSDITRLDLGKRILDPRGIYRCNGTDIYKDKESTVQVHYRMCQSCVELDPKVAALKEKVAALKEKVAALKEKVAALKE
Experimental: (§1) gpA33×CD3 bi-specific Fc diabody (DART-2 w/Fc Version 1) binding to soluble versions of human and cynomolgus monkey CD3 receptor was analyzed by SPR on a BIAcore 3000 biosensor (GE, Healthcare). Receptors were immobilized on the CM5 sensor chip according to the procedure recommended by the manufacturer. Briefly, the carboxyl groups on the sensor chip surface were activated with an injection of a solution containing 0.2M N-ethyl-N-(3dietylamino-propyl) carbodiimide and 0.05M N-hydroxy-succinimide. Soluble CD3 receptor (1 μg/ml) was then injected over the activated CM5 surface in 10 mM sodium-acetate, pH 5.0, at flow rate 5 μL/min, followed by 1 M ethanolamine for deactivation.
(§2) Binding experiments were performed in HBS-EP buffer, which contains 10 mM HEPES, pH 7.4, 150 mM NaCl, 3 mM EDTA and 0.005% P20 surfactant. Binding of DART-2 w/Fc Version 1 was analyzed (in duplicate) at concentrations of 0, 6.25, 12.5, 25, 50 and 100 nM, injected for 120 sec at a flow rate of 30 μL/min.
(§3) Regeneration of the immobilized receptor surfaces was performed by pulse injection of 10 mM glycine, pH 1.5. Reference curves were obtained by injection of each dilution of DART-2 w/Fc over the treated surface with no immobilized protein. Binding curves at zero concentration were subtracted as a blank. KD values were determined by a global fit of binding curves to the Langmuir 1:1 binding model (BIAevaluation™ software v4.1).

[4] = biological target: T4, soluble cynomolgus monkey CD3ε/CD3δ heterodimer (cynomolgus monkey); test: as above
T4 construct: Co-expressed in CHO-S cells; also called cynoCD3ε/δ
T4 chain 1: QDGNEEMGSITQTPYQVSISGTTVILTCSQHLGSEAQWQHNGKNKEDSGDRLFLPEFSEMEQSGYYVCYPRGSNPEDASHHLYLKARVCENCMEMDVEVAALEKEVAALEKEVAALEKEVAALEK
T4 chain 2: T3 chain 2 with I5V, N15K, I20V, S32T, D33N, I34N, T64A, S74N
Experimental: as §1, §2, §3

[5] = biological target: T5, soluble cynomolgus monkey gpA33 with 6His (cynomolgus monkey, UniProt G7NU40 17-329); test: SPR (BIAcore 3000), captured gpA33-His, diabody as analyte, 1:1 Langmuir global fit
T5 construct: range 1-314; The range 1-314 is as printed; also called cynogpA33-His
T5 sequence: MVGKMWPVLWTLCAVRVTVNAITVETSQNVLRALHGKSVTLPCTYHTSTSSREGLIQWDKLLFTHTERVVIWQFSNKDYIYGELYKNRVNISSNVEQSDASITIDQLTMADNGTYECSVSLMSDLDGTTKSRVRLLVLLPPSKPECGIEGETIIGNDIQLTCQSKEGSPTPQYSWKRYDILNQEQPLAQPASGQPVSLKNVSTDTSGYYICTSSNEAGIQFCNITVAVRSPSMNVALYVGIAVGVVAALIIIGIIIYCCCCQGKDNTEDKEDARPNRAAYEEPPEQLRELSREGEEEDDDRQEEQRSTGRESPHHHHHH

[6] = biological target: T6, soluble human gpA33 with 6His (human, UniProt Q99795 22-235); test: as above
T6 construct: range 1-235; Expressed in CHO-S cells; The stated range starts at residue 1 and so includes the signal peptide; also called hgpA33-His
T6 sequence: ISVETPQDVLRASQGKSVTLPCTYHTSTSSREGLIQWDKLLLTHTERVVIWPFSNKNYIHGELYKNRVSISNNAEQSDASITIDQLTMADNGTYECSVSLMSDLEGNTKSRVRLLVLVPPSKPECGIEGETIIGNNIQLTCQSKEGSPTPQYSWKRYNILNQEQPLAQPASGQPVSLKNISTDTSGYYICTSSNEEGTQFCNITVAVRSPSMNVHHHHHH

B1: gpA33 × CD3 bi-specific monovalent diabody (DART-2) (bispecific antibody)
chain 1: QAVVTQEPSLTVSPGGTVTLTCRSSTGAVTTSNYANWVQQKPGQAPRGLIGGTNKRAPWTPARFSGSLLGGKAALTITGAQAEDEADYYCALWYSNLWVFGGGTKLTVLGGGGSGGGGQVQLVQSGAEVKKPGASVKVSCKASGYTFTGSWMNWVRQAPGQGLEWIGRIYPGDGETNYNGKFKDRVTITADKSTSTAYMELSSLRSEDTAVYYCARIYGNNVYFDVWGQGTTVTVSSGGCGGGEVAALEKEVAALEKEVAALEKEVAALEK
chain 2: DIQLTQSPSFLSASVGDRVTITCSARSSISFMYWYQQKPGKAPKLLIYDTSNLASGVPSRFSGSGSGTEFTLTISSLEAEDAATYYCQQWSSYPLTFGQGTKLEIKGGGSGGGGEVQLVESGGGLVQPGGSLRLSCAASGFTFSTYAMNWVRQAPGKGLEWVGRIRSKYNNYATYYADSVKDRFTISRDDSKNSLYLQMNSLKTEDTAVYYCVRHGNFGNSYVSWFAYWGQGTLVTVSSGGCGGGKVAALKEKVAALKEKVAALKEKVAALKE
**Q.** B1 was tested. Which “EC50 - CTL Activity, Colo205 Target Cells, LDH Assay, Human PBMC” value [1] did it give?
**A.** 4.09 ng/mL

**Q.** And the “EC50 - CTL Activity, Colo205 Target Cells, Luciferase Assay, Human PBMC” value [1]?
**A.** 2.73 ng/mL

**Q.** And the “EC50 - CTL Activity, Colo205 Target Cells, LDH Assay, Cyno PBMC” value [2]?
**A.** 3.81 ng/mL

**Q.** What about the “EC50 - CTL Activity, Colo205 Target Cells, Luciferase Assay, Cyno PBMC” value [2] of the same binder?
**A.** 1.55 ng/mL

B2: gpA33 × CD3 bi-specific monovalent diabody having an Albumin-Binding Domain (DART-2 w/ABD) (bispecific antibody)
chain 1: QAVVTQEPSLTVSPGGTVTLTCRSSTGAVTTSNYANWVQQKPGQAPRGLIGGTNKRAPWTPARFSGSLLGGKAALTITGAQAEDEADYYCALWYSNLWVFGGGTKLTVLGGGGSGGGGQVQLVQSGAEVKKPGASVKVSCKASGYTFTGSWMNWVRQAPGQGLEWIGRIYPGDGETNYNGKFKDRVTITADKSTSTAYMELSSLRSEDTAVYYCARIYGNNVYFDVWGQGTTVTVSSGGCGGGEVAALEKEVAALEKEVAALEKEVAALEKGGGSLAQAKEAAIRELDKYGVSDYYKNLIDNAKSAEGVKALIDEILAALP
chain 2: B1 chain 2
**Q.** What does the source list for B2?
**A.** EC50 - CTL Activity, Colo205 Target Cells, LDH Assay, Human PBMC [1]: 5.52 ng/mL; EC50 - CTL Activity, Colo205 Target Cells, Luciferase Assay, Human PBMC [1]: 3.07 ng/mL; EC50 - CTL Activity, Colo205 Target Cells, LDH Assay, Cyno PBMC [2]: 4.63 ng/mL; EC50 - CTL Activity, Colo205 Target Cells, Luciferase Assay, Cyno PBMC [2]: 1.63 ng/mL

B3: Humanized mAb 1 (antibody, V domains shown)
VH: QVQLVQSGAEVKKPGASVKVSCKASGYTFTGSWMNWVRQAPGQGLEWIGRIYPGDGETNYNGKFKDRVTITADKSTSTAYMELSSLRSEDTAVYYCARIYGNNVYFDVWGQGTTVTVSS
VL: DIQLTQSPSFLSASVGDRVTITCSARSSISFMYWYQQKPGKAPKLLIYDTSNLASGVPSRFSGSGSGTEFTLTISSLEAEDAATYYCQQWSSYPLTFGQGTKLEIK
notes: also called humanized anti-human gpA33 antibody
**Q.** How did the Kd (human gpA33) turn out when B3 was run?
**A.** 3.4 nM

B4: gpA33 × CD3 bi-specific monovalent diabody having an IgG Fc Domain version 1 (DART-2 w/Fc Version 1) (bispecific antibody)
chain 1: DIQLTQSPSFLSASVGDRVTITCSARSSISFMYWYQQKPGKAPKLLIYDTSNLASGVPSRFSGSGSGTEFTLTISSLEAEDAATYYCQQWSSYPLTFGQGTKLEIKGGGSGGGGEVQLVESGGGLVQPGGSLRLSCAASGFTFSTYAMNWVRQAPGKGLEWVGRIRSKYNNYATYYADSVKDRFTISRDDSKNSLYLQMNSLKTEDTAVYYCVRHGNFGNSYVSWFAYWGQGTLVTVSSGGCGGGEVAALEKEVAALEKEVAALEKEVAALEKGGGDKTHTCPPCPAPEAAGGPSVFLFPPKPKDTLMISRTPEVTCVVVDVSHEDPEVKFNWYVDGVEVHNAKTKPREEQYNSTYRVVSVLTVLHQDWLNGKEYKCKVSNKALPAPIEKTISKAKGQPREPQVYTLPPSREEMTKNQVSLWCLVKGFYPSDIAVEWESNGQPENNYKTTPPVLDSDGSFFLYSKLTVDKSRWQQGNVFSCSVMHEALHNHYTQKSLSLSPGK
chain 2: QAVVTQEPSLTVSPGGTVTLTCRSSTGAVTTSNYANWVQQKPGQAPRGLIGGTNKRAPWTPARFSGSLLGGKAALTITGAQAEDEADYYCALWYSNLWVFGGGTKLTVLGGGGSGGGGQVQLVQSGAEVKKPGASVKVSCKASGYTFTGSWMNWVRQAPGQGLEWIGRIYPGDGETNYNGKFKDRVTITADKSTSTAYMELSSLRSEDTAVYYCARIYGNNVYFDVWGQGTTVTVSSGGCGGGKVAALKEKVAALKEKVAALKEKVAALKE
chain 3: not shown
notes: also called DART-2 with Fc
**Q.** With B4 as the binder, how does the Kd [3] read?
**A.** 23 nM

**Q.** And the koff [3]?
**A.** 0.0035 s⁻¹

**Q.** And the kon [3]?
**A.** 150000 M⁻¹ s⁻¹

**Q.** What about the Kd [4] of the same binder?
**A.** 26 nM

**Q.** What about the koff [4] of the same binder?
**A.** 0.0034 s⁻¹

**Q.** And the kon [4]?
**A.** 130000 M⁻¹ s⁻¹

**Q.** What about the Kd [5] of the same binder?
**A.** 12 nM

**Q.** What about the koff [5] of the same binder?
**A.** 0.0028 s⁻¹

**Q.** What about the kon [5] of the same binder?
**A.** 230000 M⁻¹ s⁻¹

**Q.** And the Kd [6]?
**A.** 2.2 nM

**Q.** And the koff [6]?
**A.** 0.0009 s⁻¹

**Q.** What about the kon [6] of the same binder?
**A.** 420000 M⁻¹ s⁻¹

B5: Murine mAb 1 (antibody, V domains shown)
VH: QVQLQQSGPELVKPGASVKISCKASGYTFSGSWMNWVKQRPGQGLEWIGRIYPGDGETNYNGKFKDKATLTADKSSTTAYMELSSLTSVDSAVYFCARIYGNNVYFDVWGAGTTVTVSS
VL: QIVLTQSPAIMSASPGERVTMTCSARSSISFMYWYQQKPGSSPRLLIYDTSNLASGVPVRFSGSGSGTSYSLTISRMEAEDAATYYCQQWSSYPLTFGSGTKLELK
notes: also called original murine anti-human gpA33 monoclonal antibody
**Q.** Which Kd (human gpA33) does the source give for B5 here?
**A.** 2.3 nM

B6: Chimeric mAb 1 (antibody, V domains shown)
VH: B5 VH
VL: B5 VL
notes: also called chimericized anti-human gpA33 antibody
**Q.** With B6 as the binder, how does the Kd (human gpA33) read?
**A.** 2.4 nM

Reference: patent publication US20160222105A1 (MacroGenics, published 2016)
